The values below come from article PMC5957528, “Boosting ATM activity alleviates aging and extends lifespan in a mouse model of progeria” (eLife, 2018).

One assay deals with SIRT6 (UniProt Q8N6T7). As to the kind of experiment: anti-HA co-IP, ATM immunoblot. The conditions noted are these: reference: Flag-ATM wild type; sites S1981.
For another assay, the target named is MDM2 (UniProt Q00987). As to the kind of experiment: anti-Flag co-IP, MDM2 immunoblot. The conditions noted are these: reference: Flag-SIRT6 wild type; sites S112.
A further assay has as its target T1, His-SIRT6 (human, UniProt Q8N6T7 1-355).
T1 construct: SIRT6, human; also called 6 × His tagged SIRT6; purified His-SIRT6; source: bacterially expressed, purified
Briefly: pull-down; GST pull-down: bacterially expressed 6 × His SIRT6 incubated separately with GST-ATM fragments in 150 mM NaCl, 20 mM Tris-HCl pH 7.5, 5 mM MgCl2, 0.2 mM EDTA, 10% glycerol, 0.2% NP-40; Glutathione Sepharose; washed with TEN buffer (300 mM NaCl). To be noted: both partners purified.

T1 sequence (Q8N6T7 whole entry): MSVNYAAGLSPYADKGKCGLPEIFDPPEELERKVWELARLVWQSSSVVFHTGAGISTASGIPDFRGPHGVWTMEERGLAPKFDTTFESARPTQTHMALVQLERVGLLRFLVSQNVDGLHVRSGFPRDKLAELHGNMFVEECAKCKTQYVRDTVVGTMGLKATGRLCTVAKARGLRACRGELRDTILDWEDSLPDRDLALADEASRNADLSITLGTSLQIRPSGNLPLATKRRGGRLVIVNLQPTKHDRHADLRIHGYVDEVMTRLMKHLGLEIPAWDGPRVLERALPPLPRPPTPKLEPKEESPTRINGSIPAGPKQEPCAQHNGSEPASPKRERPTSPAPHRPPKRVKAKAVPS

As for “ATM (from UniProt Q13315) Flag-ATM S1981A”, the “binding against the reference” value in the assay with SIRT6 is given as “lost”.
With “SIRT6 (from UniProt Q8N6T7) Flag-SIRT6 S112A”, the “binding against the reference” value with MDM2 was “stronger”.

B1: GST-ATM-4 (residues 770–1102) (domain or fragment, human, UniProt Q13315 770-1102, looked up)
chain: EFRIGSLRNMMQLCTRCLSNCTKKSPNKIASGFFLRLLTSKLMNDIADICKSLASFIKKPFDRGEVESMEDDTNGNLMEVEDQSSMNLFNDYPDSSVSDANEPGESQSTIGAINPLAEEYLSKQDLLFLDMLKFLCLCVTTAQTNTVSFRAADIRRKLLMLIDSSTLEPTKSLHLHMYLMLLKELPGEEYPLPMEDVLELLKPLSNVCSLYRRDQDVCKTILNHVLHVVKNLGQSNMDSENTRDAQGQFLTVIGAFWHLTKERKYIFSVRMALVNCLKTLLEADPYSKWAILNVMGKDFPVNEVFTQFLADNHHQVRMLAAESINRLFQDTKG
notes: source: recombinant GST fusion (pGEX4T-3 vector)
Take B1: the binding result with His-SIRT6 is reported as “binds”.
